Article PMC11046469, “Leveraging a Phage-Encoded Noncanonical Amino Acid: A Novel Pathway to Potent and Selective Epigenetic Reader Protein Inhibitors” (ACS Central Science, 2024)

Each substance was assayed against T1, ENL YEATS domain (AviSUMO-ENL YEATS) (Homo sapiens, UniProt Q03111) (assay: Phage panning of BuK-containing 7-mer library against AviSUMO-ENL YEATS with Illumina NGS abundance). Details: sheet ENLR3: round 3 of panning against ENL YEATS; TAG = amber codon (BuK); 7-mer library positions V1-V7.
T1 construct: encoding ENL YEATS (aa 1−148) was cloned in pET28a-; made in house; host or cells: E. coli BL21(DE3pLysS), co-expressed with BirA (pBirAcm)
T1 sequence (Q03111 1-148): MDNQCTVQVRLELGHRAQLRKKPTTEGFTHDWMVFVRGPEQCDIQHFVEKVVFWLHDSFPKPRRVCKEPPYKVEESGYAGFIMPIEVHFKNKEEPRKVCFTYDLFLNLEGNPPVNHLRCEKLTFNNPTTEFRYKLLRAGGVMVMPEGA
Text: We utilized a previously established amber-obligate 7-mer phage display library to develop a phage display library enriched with BuK-containing 7-mer peptides. For detailed characterizations, including analysis of amber codon percentages, NNK trinucleotide analysis, and amino acid distribution at each position within the library, please refer to the work of Tharp et al.[10] Furthermore, the comprehensive raw NGS data for the amber-obligate 7-mer phage library can be found in the NCBI’s Sequence Read Archive, under the accession ID PRJNA606283. To produce the BuK-containing 7-mer phage library, the phages were produced in the presence of 5 mM BuK using TOP10 cells harboring the following three plasmids: (1) pADL-gIII, which contains the 7-mer amber-obligate peptide-coding DNA library positioned at the N-terminus of M13 pIII gene; (2) pCDF-BuKRS, which encodes BuKRS and its cognate tRNA^Pyl for the genetic incorporation of BuK at amber codons in the 7-mer library; and (3) M13KO7TAA, a helper phage plasmid engineered to have a TAA mutation at pIII so that its lack of a functional pIII allows an efficient multivalent display of the 7-mer library. The ENL YEATS domain containing an N-terminal AviSUMO-Tag was recombinantly expressed in E. coli together with BirA, a biotin ligase, for site-specific biotinylation at the AviTag. The biotinylated AviSUMO-ENL YEATS was immobilized on streptavidin-coated magnetic beads for panning with the BuK-containing phages. […] Phage libraries collected from the first and third rounds of selection were sequenced using Illumina next generation sequencing (NGS) and all sequenced data are available through the NCBI SRA database (Project PRJNA1041845). To prevent possible sequencing errors from affecting conclusions, sequences were filtered using previously published paired-end processing,[10] where any sequences containing more than one mismatch in the nonlibrary region or any mismatch in the library region were discarded. The NGS data provided DNA sequences encompassing both the library and nonlibrary regions. In our analysis, we included data from the nonlibrary region as a stringent quality control measure to filter out low-quality data. For our analysis, we utilized 51 nucleotides from the NGS output, with 21 nucleotides encoding the library region and an additional 30 nucleotides for the nonlibrary region. […] Among all the sequences, only 85 of them contained more than 100 copies (blue area), while the remaining sequences all had low abundances (<10^2 copies, dark and light gray areas), which constituted 85.2% of the first round population. After three panning rounds, the selection converged to two highly enriched sequences: YDVYCYX (ENL-S1) and WWIIEXG (ENL-S2, X denotes BuK). Out of 551 different unique sequences collected from the third round, ENL-S1 and ENL-S2 represented 85% of the entire library (Figure 2A and Figures S6–S8). Both peptide sequences corresponded to their own unique DNA sequence, rather than there being varying codons encoding the same amino acids (Figure S7). […] Two motifs were found in the majority of sequences with high abundance (greater than 0.1%) (Figure S6). A Y(C/L)Y pattern was identified in the residues adjacent to BuK in four of the eight top sequences. Also, an H(L/Y)(T/V)LFXG (X denotes BuK) motif was observed, albeit at lower abundances, in two of the top sequences. In the initial round of selection, we observed that only a small percentage of phages were eluted, which aligns with typical outcomes in phage selection experiments since only a low copy number of phages can bind to the target.[10],[45] With each successive round of selection, we noted a gradual increase in the percentage of phages eluted. This incremental, rather than sharp, increase was attributed to the intensification of selection pressures, such as the application of more stringent washing protocols. We aimed for the incremental increase to retain potent clones with low copy numbers from the previous selection cycle. […]

Substance	n (number of NGS reads of the unique amino acid sequence)	percent (share of sequence reads)
SVIYCYTAG	9	0.008196%
WWIIDTAGG	29	0.02641%
WWIIVTAGG	4	0.003642%
YGVYCYTAG	13	0.01184%
YDVYWYTAG	3	0.002732%
YDVYCFTAG	2	0.001821%
FKCTAGNGC	1	0.0009106%
YDVHCYTAG	5	0.004553%
SLMMCQTAG	2	0.001821%
WFILYTAGD	25	0.02277%
YHVYCYTAG	2	0.001821%
HYFLFTAGG	1	0.0009106%
LYGSTAGDC	1	0.0009106%
CTAGGGSLF	1	0.0009106%
YDVYCYTAG	60611	55.1932%
YDAYCYTAG	11	0.01002%
WWIIEWG	3	0.002732%
TAIFCYTAG	3	0.002732%
LWIFTPTAG	4	0.003642%
NCPTAGFNL	1	0.0009106%
YDVYRYTAG	9	0.008196%
WTVYCYTAG	3	0.002732%
HLNLFTAGG	2	0.001821%

The next lines start with the values.

n (number of NGS reads of the unique amino acid sequence)	percent (share of sequence reads)	Substance
4	0.003642%	YVVYCYTAG
47	0.0428%	YDVYFYTAG
6	0.005464%	YLYYVPC
10	0.009106%	WWVFDATAG
1	0.0009106%	LLAFLWL
13	0.01184%	HDVYCYTAG
21	0.01912%	CYDLCTAGG
7	0.006374%	YDVYYYTAG
2	0.001821%	HFTLFTAGG
6	0.005464%	WWIVETAGG
1	0.0009106%	LCGPRTAGD
1	0.0009106%	HYVLFTAGW
1	0.0009106%	ILATAGSVN
3	0.002732%	QCGSRTAGD
41	0.03734%	YVGPWTAGG
1	0.0009106%	HAIYFYTAG
10	0.009106%	WWIIETAGE
56	0.05099%	CHMLCTAGD
2	0.001821%	WLIIETAGD
28	0.0255%	IMCYPFTAG
1	0.0009106%	LTAGSSASG
1	0.0009106%	HSWFTAGDG
10	0.009106%	YNVYCYTAG
4	0.003642%	HLTLFTAGD
2	0.001821%	TAGTLWNVG
10	0.009106%	QCGPLTAGD
26	0.02368%	LWIIETAGG

Same assay, conditions: sheet ENLR3: round 3 of selection against ENL YEATS; TAG = amber codon (BuK)

Substance	n (number of NGS reads of the 7-mer sequence V1-V7)	percent (share of NGS reads of the 7-mer sequence V1-V7)
QTAGERNAC	1	0.0009106%
YDGPWTAGG	1	0.0009106%
TAGVFALVI	1	0.0009106%
YDGYCYTAG	1	0.0009106%
TAGSGVASC	1	0.0009106%
WWIIATAGG	1	0.0009106%

The next lines start with the values.

n (number of NGS reads of the 7-mer sequence V1-V7)	percent (share of NGS reads of the 7-mer sequence V1-V7)	Substance
1	0.0009106%	TAGNVCGTV
1	0.0009106%	YLTLFTAGG
1	0.0009106%	STAGTEIYC
1	0.0009106%	WWFIETAGG
1	0.0009106%	SAVVATAGG
1	0.0009106%	QWGPRTAGD
1	0.0009106%	QCGPRTAGE
1	0.0009106%	WWVLVTAGS
1	0.0009106%	YGTAGHDFF
1	0.0009106%	QCGPWTAGG
1	0.0009106%	VWVSTAGMT
1	0.0009106%	RWVAGPTAG
